According to patent US20160251695:
Residue numbers refer to the chain shown, from its start. In names and notes the source's numbering stands.

T1: α-fructosyl-valyl-histidyl-leucyl-threonyl-proryl-glutamic acid
T1 chain: VHLTPE

B1: CFP-T7-H2-62N (protein)
chain: MTSNRADTRVIVVGGGGTIGSSTALHLVRSGYAPANITVLDTFEIPSAQSAGHDLNKIMGINLRNKVDLQMSLEARQMWKEDELFQPFFHNTGRMDCEHTPEGIEDLKKLYQALHDAGAGLEKTHAWLDNEDEILSKMPLLQRDQIQGWKAIWSQDGGWLAAAKAINAIGQFLKERGVKFGFGGAGSFKQPLFDDEGTTCIGVETADGTKYYADKVVLAAGAWSPTLVDLEDQCCSKAWVYAHIQLTPEEAAEYKGVPVVYNGEFGFFFEPDEFGVIKVCDEFPGFSRFKEHQPYGAPSPKRISVPRSHAKHPTDTYPDASEVSIKKAIATFLPRFQDKELFNRALCWCTDTADAALLMCEHPKWKNFILATGDSGHSFKILPNVGKYVVELIEGRLPEEMAYQWRWRPGGDALKSRRAAPPKDLADMPGWKHDPKL
B2: CFP-T7-H6 (protein)
chain: B1 chain with N62D
B3: CFP-T7-H2-62Q (protein)
chain: B1 chain with N62Q
B4: CFP-T7-H2-62E (protein)
chain: B1 chain with N62E
B5: CFP-T7-H2 (protein)
chain: B1 chain with N62A
B6: CFP-T7-H7 (protein)
chain: B1 chain with N62D, R64A
B7: CFP-T7-H8 (protein)
chain: B1 chain with N62D, R64E
B8: CFP-T7-H9 (protein)
chain: B1 chain with N62D, R64H
B9: CFP-T7-H10 (protein)
chain: B1 chain with N62D, D106A
B10: CFP-T7-H11 (protein)
chain: B1 chain with N62D, D106K
B11: CFP-T7-H12 (protein)
chain: B1 chain with N62D, D106R
B12: CFP-T7-H13 (protein)
chain: B1 chain with N62D, A113K
B13: CFP-T7-H14 (protein)
chain: B1 chain with N62D, A113R
B14: CFP-T7-H24 (protein)
chain: B1 chain with N62D, L63A, D106K, A113K
B15: CFP-T7-H25 (protein)
chain: B1 chain with N62D, L63D, D106K, A113K
B16: CFP-T7-H26 (protein)
chain: B1 chain with N62D, L63H, D106K, A113K
B17: CFP-T7-H27 (protein)
chain: B1 chain with N62D, L63K, D106K, A113K
B18: CFP-T7-H28 (protein)
chain: B1 chain with N62D, L63H, E102K, D106K, A113K
B19: CFP-T7-H29 (protein)
chain: B1 chain with N62D, L63H, D106K, A113K, A419K
B20: fructosyl amino acid oxidase derived from Aspergillus oryzae RIB40 (protein)
chain: MTVTKSSSILIIGAGTWGASTALHLGRRGYTNVTVLDPYTVPSAISAGNDVNKIISSGQYSNKKDEIEVNEILAEEAFKGWTTDPLFKPYYHDTGVVMSACSSAGLDRLGIRVRPEEEPDVSEVTKPEHFRQLAPAVLKGNFPGWRGYHIRSNAGWAHARNALVAAIREAEKLGVKFVTGTQGRVITLIFENNDVKGAVTADGKIWRAEQTVLCAGANAAQFLDFKDQLRPTAWTLAHIRLKPEERALYKNLPVIFNIEKGFFFEPDEERGEIKICDEHPGYTNMVKSADGHLTSLPFEKTQIPKESEARVRALLSETMPQLADRPFSFARVCWCADTANREFIIDRHPEHPSLVLGCGASGRGFKYLPSIGNLIVDAIEDKVPEKVHKLTRWSPDIAVDRKWRDTLGRFGGPNRVMDFHDVKEWTNVQNKDTAKL
B21: fructosyl peptide oxidase derived from Phaeosphaeria nodorum (protein)
chain: MAPSRANTSVIVVGGGGTIGSSTALHLVRSGYTPSNVTVLDAYPIPSSQSAGNDLNKIMGVSLRNPVDLQLALEARQMWNEDELFKKFFHNTGRLDCAHGEKDIADLKSGYQALVDAGLDATNEWLDSEDEILKRMPLLSRDQIKGWKAIFSKDGGWLAAAKAINAVGEYLRDQGVRFGFYGAGSFKAPLLAEGVCIGVETVDGTRYYADKVVLAAGAWSPTLVELHEQCVSKAWVYGHIQLTPEEAARYKNSPVVYNGDVGFFFEPNEHGVIKVCDEFPGFTRFKMHQPFGAKAPKRISVPRSHAKHPTDTIPDASDVSIRRAIATFMPQFKNKKMFNQAMCWCTDTADAALLICEHPEWKNFVLATGDSGHSFKLLPNIGKHVVELLEGTLADDLAHAWRWRPGSGDALKSRRSAPAKDLADMPGWNHDKPRANL
B22: CFP-T7-H36 (protein)
chain: B1 chain with N62D, L63H, D68N, E102K, D106K, A113K, A355S
B23: CFP-T7-H37 (protein)
chain: B1 chain with N62D, L63H, D68N, E102K, D106K, A113K, A355S, A356T
B24: fructosyl peptide oxidase derived from Eupenicillium terrenum (protein)
chain: MAHSRASTKVVVVGGGGTIGSSTALHLIRSGYTPSNITVLDVYKTPSLQSAGHDLNKIMGIRLRNGPDLQLSLESLDMWQNDELFKPFFHQVGMIDCSSSKEGIENLRRKYQTLLDAGIGLEKTNVWLESEDEILAKAPNFTREQVKGWKGLFCTDGGWLAAAKAINAIGIFLQDKGVKFGFGDAGTFQQPLFAADGKTCIGLETTDGTKYFADKVVLAAGAWSPTLVDLEDQCVSKAWVFAHIQLTPKEADAYKNVPVVYDGEYGFFFEPDEYGVIKVCDEFPGFSRFKLHQPYGAASPKMISVPRSHAKHPTDTYPDASEVTIRKAIARFLPEFKDKELFNRTMCWCTDTADANLLICEHPKWKNFILATGDSGHSFKLLPNIGKYVVELLEGSLSQEMAGAWRWRPGGDALRSRRGAPAKDLAEMPGWKHDAHL
B25: EFP-T5-R62D (protein)
chain: B24 chain with R62D
B26: ketoamine oxidase derived from Neocosmospora vasinfecta (protein)
chain: MTTPRKETTVLIIGGGGTIGSSTALHLLRAGYTPSNITVLDTYPIPSAQSAGNDLNKIMGIRLRNKVDLQLSLEARDMWRNDALFRPFFHNTGRLDCESSAEGVEGLRREYQKLVEAGVGLEETHEWLDSEEAILEKAPLLQREEIEGWKAIWSEEGGWLAAAKAINAIGEELQRQGVRFGFGGAGSFKRPLFADDGTTCIGVETVDGTQYHADKVVLAAGAWSPALVDLEEQCCSKAWVYAHMQLTPEEAAVYKGCPVVYHGDVGFFFEPNENGVIKVCDEFPGFTRFKQHQPYGAPAPKPVSVPRSHAKHPTDTYPDASEESIKRAVSTFLPRFKDKPLFNRALCWCTDTADSALLICEHPRWKNFILATGDSGHSFKLLPIIGKHVVELVEGRLADDLAEAWRWRPGQGDARKSIRAAPAKDLADMPGWKHDQDSESR
B27: NvFX-62D/106K/110L (protein)
chain: B26 chain with R62D, G106K, E110L
B28: fructosyl amino acid oxidase derived from Aspergillus nidulans resulting from substitution of serine at position 59 with glycine (protein)
chain: MTPRANTKIIVVGGGGTMGSSTALHLLRAGYTPSNITVLDTCPIPSAQSAGYDLNKIMGIRLRNKPDLQLSLEALDMWKNDPLFKPFFHNVGMIDVSSTEEGIEGLRKKYQSLLDAGIGLEKTNFMLESEDEILAKAPHFTQEQIKGWKGLFCGDGGWLAAAKAINAIGQFLKEQGVKFGFGGAGTFKKPLFADAHEKTCIGVETVDGTKYYADKVVLAAGAWSSTLVDLEEQCVSKAWVFAHIQLTPAEAAAYKNTPVIYDGDYGFFFEPNENGIIKVCDEFPGFTHFKMHQPYGSPAPKPISVPRSHAKHPTDTYPHASEVTIKKAINRFLPRFNDKELFNRAMCWCTDTADANLLVCEHPRWKGFYLATGDSGHSFKLLPNIGKHVVELLEERLESVFKDAWRWRPGSGDALKSRRAAPAKDLADMPGWRNEAKM
B29: AnFX-61D/105K/109L (protein)
chain: B28 chain with R61D, G105K, K109L
B30: AnFX-61D/62H/101K/105K/109L/112K/355S (protein)
chain: B28 chain with R61D, L62H, E101K, G105K, K109L, S112K, A355S

Target: T1, α-fructosyl-valyl-histidyl-leucyl-threon …
Settings: not given

Protein | αF6P oxidation activity ratio (relative value (CFP-T7-H2 = 100)) | αF6P oxidation activity ratio (relative value (CFP-T7-H6 = 100)) | αF6P oxidation activity ratio (relative value (CFP-T7-H20 = 100)) | αF6P oxidation activity ratio (relative value (CFP-T7-H26 = 100)) | αF6P oxidation activity ratio (relative value (CFP-T7-H28 = 100)) | Specific activity (U/mg), 1 mM αF6P [U/mg]
B1 | 120 | – | – | – | – | –
B2 | 513 | 100 | – | – | – | –
B3 | 11 | – | – | – | – | –
B4 | 21 | – | – | – | – | –
B5 | 100 | – | – | – | – | –
B6 | – | 17 | – | – | – | –
B7 | – | 2 | – | – | – | –
B8 | – | 44 | – | – | – | –
B9 | – | 301 | – | – | – | –
B10 | – | 951 | – | – | – | –
B11 | – | 636 | – | – | – | –
B12 | – | 207 | – | – | – | –
B13 | – | 183 | – | – | – | –
B14 | – | – | 123 | – | – | –
B15 | – | – | 24 | – | – | –
B16 | – | – | 142 | 100 | – | –
B17 | – | – | 7 | – | – | –
B18 | – | – | – | 117 | 100 | –
B19 | – | – | – | 102 | – | –
B20 | – | – | – | – | – | 0.0022
B21 | – | – | – | – | – | 0.0091
B22 | – | – | – | – | – | 4.65
B23 | – | – | – | – | – | 7.19
B24 | – | – | – | – | – | 0
B25 | – | – | – | – | – | 0.0043
B26 | – | – | – | – | – | 0
B27 | – | – | – | – | – | 0.003
B28 | – | – | – | – | – | 0
B29 | – | – | – | – | – | 0.106
B30 | – | – | – | – | – | 0.283

Same assay, conditions: scale: relative value

Protein | αF6P oxidation activity
B2 | 3
B5 | 0.0735
B10 | 12.5
B11 | 11.6
B12 | 4.33
B13 | 4.22
B14 | 86.7
B16 | 84.3
B18 | 134
B19 | 111
